The source of these data is patent publication US20060171935A1, “Protecting cell therapy for neurological disorders including Parkinson's disease” (priority 2005, published 2006).

The target in one series is T1, citrate synthase (CS) (Sus scrofa, UniProt P00889).
T1 construct: purchased Sigma
T1 sequence (P00889 28-464): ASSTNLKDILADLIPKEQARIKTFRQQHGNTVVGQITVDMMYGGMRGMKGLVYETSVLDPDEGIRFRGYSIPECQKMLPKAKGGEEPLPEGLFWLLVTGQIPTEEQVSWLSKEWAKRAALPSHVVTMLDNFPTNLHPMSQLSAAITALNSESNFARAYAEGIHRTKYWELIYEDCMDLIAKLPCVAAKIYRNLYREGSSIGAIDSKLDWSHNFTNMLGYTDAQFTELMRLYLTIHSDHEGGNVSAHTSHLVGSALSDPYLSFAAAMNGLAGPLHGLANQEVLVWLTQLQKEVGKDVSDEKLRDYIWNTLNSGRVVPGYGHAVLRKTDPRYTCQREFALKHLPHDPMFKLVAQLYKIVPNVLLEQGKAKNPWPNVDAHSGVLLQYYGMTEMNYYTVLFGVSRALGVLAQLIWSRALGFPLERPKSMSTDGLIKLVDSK
In words: Suppression of heat-induced aggregation of citrate synthase (chaperone assay). The conditions noted are these: 0.8 μM CS, 43° C. Type of series: biochemical. Here is the method: To test the redox regulation of DJ-1, the inventors assayed chaperone activity in the CS aggregation assay in the presence or absence of the reducing agent DTT. […] (FIG. 22D). […] To further test whether redox regulation might govern DJ-1 chaperone activity, reactivation studies using reduced DJ-1 were performed. DTT-reduced DJ-1 was incubated with H2O2 (10 mM in aggregation buffer for 10 min at 4° C. followed by dialysis against aggregation buffer for 2 h), and subsequently chaperone activity was measured in the CS thermal aggregation assay. […] This was not an indirect effect of residual H2O2 on CS aggregation, as H2O2 treatment of CS increased aggregation (unpublished data).
CS aggregation was performed in 40 mM HEPES (pH 7.8), 20 mM potassium hydroxinde, 50 mM potassium chloride, and 10 mM ammonium sulfate, and monitored in a thermostat-controlled fluorescence spectrophotometer with excitation and emission wavelengths at 500 nm and slit widths at 2.5 nm. Insulin aggregation was performed as described (Giasson et al. 2000). CS, insulin, RNase A, and GST were obtained from Sigma; human Hsp27 was obtained from Stressgen.

Another series in a line: CD thermal denaturation. The series is classed as physicochemical. The conditions noted are these: CD at 222 nm, range studied 0-90° C. From the text:
(G) Redox regulation is unaffected by the C106A mutation.
Molecular chaperones typically display marked stability to thermal stress (Sastry et al. 2002). […] (FIG. 28).

The next series relates to DJ-1-deficient ES cells. In words: Rescue of DJ-1-deficient ES cells from H2O2, MTT viability. Type of series: cell-based, murine. Particulars: transient transfection, 10 μM H2O2 for 15 h. The method, then:
(A) DJ-1 cysteine-to-alanine mutants C106A, C53A, and a triple mutant that harbors mutations at all three cysteines in DJ-1 (C106A/C53A/C46A), as well as L166P, were tested for in vitro chaperone activity by CS aggregation suppression assay. (B) Self-association of DJ-1 cysteine mutants. Murine neuroblastoma CAD cells were transiently cotransfected with Flag-tagged human DJ-1 vectors (either WT or mutant) along with WT YFP-tagged human DJ-1. Lysates were immunoprecipitated with anti-Flag antibodies and probed by Western blotting with an antibody specific for human DJ-1. […] Lysates represent 20% of the input for the immunoprecipitate; Flag-DJ-1 migrates at 22 kDa, and YFP-DJ-1 migrates at 50 kDa. (C) DJ-1-deficient ES cells were transiently transfected with vector alone, WT DJ-1, or DJ-1 cysteine mutants, and exposed to 10 μM H2O2 for 15 h followed by MTT assay. The viability of the cells in the absence of drug treatment was not altered by the expression of WT or mutant DJ-1). Data are shown as the mean±SEM and were analyzed by ANOVA with Fisher's post-hoc test. *p<0.05.
To confirm that altered sensitivity to oxidative stress is a consequence of the loss of DJ-1, ‘rescue’ experiments by overexpressing wild-type or mutant human DJ-1 in ‘knockout’ ES cells were performed. Plasmids encoding human wild-type DJ-1, PD-associated L166P mutant DJ-1, or vector alone, were transiently transfected into DJ-1 deficient clones, and these were subsequently assayed for sensitivity to H2O2 using the MTT viability assay.
In Vivo Assays. ES cells plated in 96-well format (2.3×10^4 cells/well) were treated for 15 hours with H2O2 in ES media deficient in β-mercaptoethanol (Abeliovich et al. 2000). Cell viability (as a percent of untreated control) was determined by MTT assay in triplicate (Fezoui et al. 2000). Annexin V/Propidium Iodide (Molecular probes) staining was performed per the manufacturer's instructions. For dihydrorhodamine-123 staining (DHR, Molecular probes) (Walrand et al. 2003), cells were preincubated for 30 min with DHR (5 μM), washed with PBS, then treated with H2O2 in ES media deficient in β-mercaptoethanol for 15 min at 37° C. The FACS analysis was performed using a FACSTAR sorter (Becton Dickinson). Dopamine uptake assay was performed essentially as described (Farrer et al. 1998). Reported values represent specific uptake from which non-specific uptake, determined in the presence of mazindol, was subtracted, and normalized for protein content (BCA kit, Pierce).

The subject of series [1] is CAD murine neuroblastoma cells. As to the kind of experiment: αSyn intracytoplasmic inclusions in CAD cells. Type of series: cell-based. The conditions noted are these: co-overexpression with αSyn. The method, then: To further evaluate αSyn aggregation, the inventors performed immunohistochemical analyses of CAD cells transfected with αSyn along with DJ-1 or control vector (FIG. 25). Overexpression of αSyn in neuroblastoma cells induces the formation of visible cytoplasmic aggregates (Lee and Lee 2002) (FIGS. 25J-25L).
(§1) Quantification of CAD cell aggregates was performed using a Zeiss LSM Pascal confocal microscope (Zeiss, Oberkochen, Germany) with a 20× long working distance lens. Images were imported to NIH Image J for analysis. Images from tenrandomly selected fields in each of three wells were quantified for each condition. Cells containing at least one intracytoplasmic aggregate, independent of size or number per cell, were scored as positive for aggregates. This number was divided by the number of transfected cells per field, determined by GFP fluorescence.

Series [2] has as its system CAD murine neuroblastoma cells. As to the kind of experiment: Q333P NFL intracytoplasmic inclusions in CAD cells. Type of series: cell-based. Particulars: co-overexpression with Q333P mutant NFL. The method, then:
In a separate set of experiments, the inventors assayed the ability of DJ-1 to inhibit aggregation of a second substrate, neurofilament light subunit (NFL). Overexpression of a mutant form of human NFL, Q333P, by transient transfection of CAD murine neuroblastoma cells, leads to the accumulation of intracytoplasmic inclusions (Perez-Olle et al. 2002).
as §1

Series [3] relates to Undifferentiated ES cells. As to the kind of experiment: Q333P mutant NFL toxicity, MTT reduction, undifferentiated ES cells. Type of series: cell-based. The conditions noted are these: 72 h. The method, then: FIG. 30 depicts the additional studies of DJ-1 mutations. […] Cells from FIG. 4M were quantified via ToPro3 nuclear staining and are expressed as number of cells per field from ten independent fields in each of three wells. Data are shown as the mean±SEM and were analyzed by ANOVA with Fisher's post-hoc test. *p<0. […] GFP positive transfected cells from FIG. 5A-5L were quantified and are expressed as number of transfected cells per field from ten independent fields in each of three wells. Data are shown as the mean±SEM and were analyzed by ANOVA with Fisher's post-hoc test. *p<0. (C) Overexpression of WT DJ-1, but not L166P mutant DJ-1, rescues cells from Q333P mutant NFL toxicity. HeLa cells were transfected with Q333P mutant NFL along with WT human DJ-1, L166P mutant DJ-1, or vector control. After 72 h, cells were assayed by MTT reduction assay (which detects reduction of 3-(4,5-dimethylthiazol-2-yl)-2,5-diphenyltetrazolium bromide by metabolic enzymes) (Martinat et al. 2004). Data are shown as the mean±SEM and were analyzed by ANOVA with Fisher's post-hoc test. *p<0. […] Undifferentiated ES cells were transfected with Q333P mutant NFL along with WT human DJ-1, C53A mutant DJ-1, or vector control. After 72 h, cells were assayed by MTT reduction assay (Martinat et al. 2004). Data are shown as the mean±SEM and were analyzed by ANOVA with Fisher's post-hoc test. *p<0. […]

A further series has as its system DY-1 ES cells. As to the kind of experiment: Candidate soluble factors in DY-1 ES cell differentiation to dopamine neurons. Type of series: cell-based, murine. The conditions noted are these: added at stages 4-5 of differentiation. Here is the method: The availability of marked ES-derived ‘late’ dopamine neurons should facilitate the analysis of candidate soluble and cell-associated factors in the differentiation process. […] Briefly, DY-1 ES cells were differentiated using EB or SDIA and candidate factors were added to the standard differentiation protocol at stages 4-5 of differentiation (Lee et al., 2000).

B1: L166P DJ-1: Parkinsonism-associated L166P mutant of human DJ-1, recombinant or plasmid-expressed (protein, UniProt Q99497 1-189, looked up, variant L166P)
chain: MASKRALVILAKGAEEMETVIPVDVMRRAGIKVTVAGLAGKDPVQCSRDVVICPDASLEDAKKEGPYDVVVLPGGNLGAQNLSESAAVKEILKEQENRKGLIAAICAGPTALLAHEIGFGSKVTTHPLAKDKMMNGGHYTYSENRVEKDGLILTSRGPGTSFEFAPAIVEALNGKEVAAQVKAPLVLKD
Take B1: the “suppression of heat-induced aggregation of CS (chaperone activity)” value with citrate synthase (CS) is given as “abrogated chaperone activity”. Further, the thermal unfolding transition entry in “CD thermal denaturation” was “does not exhibit a thermal unfolding transition”. Besides, the “viability of DJ-1 knockout cells in the presence of H2O2” value in the series on DJ-1-deficient ES cells is given as “did not significantly alter the viability”. Besides, in series [1], the “number of cells containing αSyn aggregates” value is “fails to do so”. In series [2], the “accumulation of NFL inclusions” value was “failed to inhibit”.

B2: C53A: DJ-1 cysteine-to-alanine mutant at cysteine 53 (protein, UniProt Q99497 1-189, looked up, variant C53A)
chain: MASKRALVILAKGAEEMETVIPVDVMRRAGIKVTVAGLAGKDPVQCSRDVVIAPDASLEDAKKEGPYDVVVLPGGNLGAQNLSESAAVKEILKEQENRKGLIAAICAGPTALLAHEIGFGSKVTTHPLAKDKMMNGGHYTYSENRVEKDGLILTSRGPGTSFEFALAIVEALNGKEVAAQVKAPLVLKD
In the case of B2, the “suppression of heat-induced aggregation of CS (chaperone activity)” value with citrate synthase (CS) is “completely abrogates chaperone activity”. Besides, the “viability of DJ-1 knockout cells in the presence of H2O2” value in the series with DJ-1-deficient ES cells was “failed to protect”. In series [3], the “rescue from Q333P mutant NFL toxicity” value is “unable to rescue”.

B3: Noggin: soluble Noggin, inhibits BMP signaling (protein, UniProt Q13253 28-232, looked up)
Noggin: QHYLHIRPAPSDNLPLVDLIEHPDPIFDPKEKDLNETLLRSLLGGHYDPGFMATSPPEDRPGGGGGAAGGAEDLAELDQLLRQRPSGAMPSEIKGLEFSEGLAQGKKQRLSKKLRRKLQMWLWSQTFCPVLYAWNDLGSRFWPRYVKVGSCFSKRSCSVPEGMVCKPSKSVHLTVLRWRCQRRGGQRCGWIPIQYPIISECKCSC
With B3, the “generation of late dopamine neurons (eYFP fluorescence, DAT immunoreactivity, late DN markers)” value in the series with DY-1 ES cells is “did not detect any effect”.
